Source: IntAct's records for PubMed 21586138

B1: E3 ubiquitin-protein ligase SH3RF1 (Homo sapiens), Q7Z6J0 (parent)
chain: MDESALLDLLECPVCLERLDASAKVLPCQHTFCKRCLLGIVGSRNELRCPECRTLVGSGVEELPSNILLVRLLDGIKQRPWKPGPGGGSGTNCTNALRSQSSTVANCSSKDLQSSQGGQQPRVQSWSPPVRGIPQLPCAKALYNYEGKEPGDLKFSKGDIIILRRQVDENWYHGEVNGIHGFFPTNFVQIIKPLPQPPPQCKALYDFEVKDKEADKDCLPFAKDDVLTVIRRVDENWAEGMLADKIGIFPISYVEFNSAAKQLIEWDKPPVPGVDAGECSSAAAQSSTAPKHSDTKKNTKKRHSFTSLTMANKSSQASQNRHSMEISPPVLISSSNPTAAARISELSGLSCSAPSQVHISTTGLIVTPPPSSPVTTGPSFTFPSDVPYQAALGTLNPPLPPPPLLAATVLASTPPGATAAAAAAGMGPRPMAGSTDQIAHLRPQTRPSVYVAIYPYTPRKEDELELRKGEMFLVFERCQDGWFKGTSMHTSKIGVFPGNYVAPVTRAVTNASQAKVPMSTAGQTSRGVTMVSPSTAGGPAQKLQGNGVAGSPSVVPAAVVSAAHIQTSPQAKVLLHMTGQMTVNQARNAVRTVAAHNQERPTAAVTPIQVQNAAGLSPASVGLSHHSLASPQPAPLMPGSATHTAAISISRASAPLACAAAAPLTSPSITSASLEAEPSGRIVTVLPGLPTSPDSASSACGNSSATKPDKDSKKEKKGLLKLLSGASTKRKPRVSPPASPTLEVELGSAELPLQGAVGPELPPGGGHGRAGSCPVDGDGPVTTAVAGAALAQDAFHRKASSLDSAVPIAPPPRQACSSLGPVLNESRPVVCERHRVVVSYPPQSEAELELKEGDIVFVHKKREDGWFKGTLQRNGKTGLFPGSFVENI
partner: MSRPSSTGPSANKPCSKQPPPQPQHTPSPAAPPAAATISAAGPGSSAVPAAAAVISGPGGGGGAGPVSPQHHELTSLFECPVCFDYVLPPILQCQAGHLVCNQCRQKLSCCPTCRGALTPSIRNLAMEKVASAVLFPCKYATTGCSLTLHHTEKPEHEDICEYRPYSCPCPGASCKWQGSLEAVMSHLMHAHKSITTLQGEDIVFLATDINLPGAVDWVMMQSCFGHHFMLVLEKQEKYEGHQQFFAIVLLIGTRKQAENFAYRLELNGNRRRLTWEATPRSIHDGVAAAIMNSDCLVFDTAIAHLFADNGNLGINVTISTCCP

Variants of: B1
Conditions: with siah2_human SIAH2, O43255

effect of a mutation on the interaction | Variant
disrupting interaction | V605N;P607N
